Assay results from the supplement of paper PMC9170038.

Test system: MS2 coat protein
Assay: apparent KD of MS2 coat protein; designed switch direction (-1 OFF switch, 1 ON switch): -1; higher = weaker reporter binding
How it was run: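 Designed RNA switches were transcribed on Illumina chips by stalled E. coli RNA polymerase and titrated with SNAP-549-labelled MS2 coat protein from 0.7 or 1.5 nM, doubling to 3 µM. Step length ran from 0.8–1.5 h at the lowest concentration to 10–20 min at the highest. The apparent KD is the median over clusters for each design, from curve-fitted normalised cluster fluorescence.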

[1] = input ligand: microRNA oligo, concentration not stated
[2] = Eterna round: R95, input ligand: FMN 200 uM
[3] = Eterna round: R95, input ligand: microRNA oligo, concentration not stated
[4] = Eterna round: R95, input ligand: none

Sequence | apparent KD of MS2 coat protein (input ligand: FMN 200 uM) | apparent KD of MS2 coat protein (input ligand: none) | apparent KD of MS2 coat protein [3] | also measured
GGAAAUCAUGUAGGAUAUGCGUGGCGAAGCUAUGCAGAAGGACAUGAGGAUCACCCAUGUGCUUCCGUCUGCGUACAGACGGUA [Mat - Exclusion NG 1 - Mod of JL - D19] (Eterna round: R96, puzzle: Exclusion NG 1) | 80.2 nM | 143 nM | – | apparent KD of MS2 coat protein [1]: 78.5 nM
GGUCAAGAACAGAUCCGCGCUGUCCUUGACCGCUCAUUUACAUGAGGAUCACCCAUGUUUUUUGCUUGUCUUGUUAC [Tixegeis] (puzzle: Sensor v3, turn-off variant 2) | – | – | 96.7 nM | apparent KD of MS2 coat protein [2]: 17.4 nM; apparent KD of MS2 coat protein [4]: 16.5 nM
GCGCAAACGCCAAAAGGCGAAAUUACAUGAGGAUCACCCAUGUAGGAUAUCGAUUGCUUUGCAGUCGAGAAGGACAUGAUGCGC [JL ENG3 3.80 Mod 1] (Eterna round: R96, puzzle: Exclusion NG 3) | – | – | – | apparent KD of MS2 coat protein [1]: 13.6 nM
AAUGCGGACAAAGGAUAUUGCGGUGACCGGCUCGGCGUACCGAGCCUACAUGAGGAUCACCCAUGUAAGAAGGUUGUCGCUAAA [Mat - Exclusion NG 2 - Mod of JL - D74] (Eterna round: R96, puzzle: Exclusion NG 2) | 43.1 nM | 17.6 nM | – | apparent KD of MS2 coat protein [1]: 13.8 nM
CGUGUCUGAUAGGAUAUGACUGUUCAUAGAUGGUUAGAAGGAUCGACAUGAGGAUCACCCAUGUAGGGCUAGCG [Eternabot (L1) Solution 65] (Eterna round: R97, puzzle: Exclusion 6) | 104 nM | 219 nM | – | –
GCUUGUAGAGGAUAUACAAGGGCCUUAGCGGAUAACACCGCACAUGAGGAUCACCCAUGUAGAAGGCUACCACC [Veorlace] (puzzle: Exclusion 2) | – | – | 16.6 nM | –
CCUUUGUCAGGAUAUCGAAAAGGGAGGCCAAAAGCCUCCGGUGAGAAGGGACAUGAGGAUCACCCAUGUGAAAA [Usleaor] (puzzle: Exclusion 4) | – | – | 37.9 nM | –
GUGUGCUGAGGAUAUACAUAGGAAGAGAAGAGAAGAGAAGGACAUGAGGAUCACCCAUGUAGAAGGCAGAGUGU [Excluse me!! 12 - Jieux - Exclusion 2] (puzzle: Exclusion 2) | – | – | 24.5 nM | –
AACCAGCGAGGAUAUGCUUGAGCUUGUUCUGGUUAUAAUCGACUUGAGGAUCACCCAAGUAGAAGGUGCUGGCG [EX2 #57] (Eterna round: R97, puzzle: Exclusion 2) | 42.6 nM | 20 nM | – | –
CAGGUUAGAGGAUAUACGUAGGUACAGAUCUGUGUGUUUCUACAUGAGGAUCACCCAUGUAGAAGGCUAUCCUG [LRO-Excl2-10] (puzzle: Exclusion 2) | – | – | 25.3 nM | –
ACAAGCGAAAGGCUCGUCUUAUUUUUGUAGAGGUUCUAAACAUGAGGAUCACCCAUGUAGUGGUUAUGGUGGAGGUA [JR_SV3TOV2_Sub070] (puzzle: Sensor v3, turn-off variant 2) | – | – | 64.4 nM | apparent KD of MS2 coat protein [2]: 57.1 nM; apparent KD of MS2 coat protein [4]: 74.6 nM
UAAAAUAGUGUGAGGAUAUGCUGGUCCUUGGAUCAGCAGAAGGCACAUGAGGAUCACCCAUGUAGUUAAUUAUA [Mat - Exclusion 4 - JL Mod - D24] (puzzle: Brourd's mod of Exclusion 4) | – | – | 36.8 nM | –
AGAUCACAUGAGGAUCACCCAUGUGAGGAUAUCGACUGAACAGCUUCGGCUGUUCAGUCGAGAAGGCACAAUUA [EX1 #41] (Eterna round: R97, puzzle: Exclusion 1) | 45.1 nM | 23.8 nM | – | –
CAAACAAGCGAAAGAUCCCACAUGAGGAUCACCCAUGUGCUCGUCUUAUAAGGUACUGUGACGAAAGUCACGGUACC [Sensor 3, v1 - 91 v21] (Eterna round: R97, puzzle: Sensor, turn-off variant 1) | 38.4 nM | 45.3 nM | – | –
UAGAUGGGAGGAUAUACGUAGAUACAGAUUCGUGUAGUGCUACAUGAGGAUCACCCAUGUAGAAGGCCCGUCUU [JL-ex2-2.23 Mayanne mod] (puzzle: Exclusion 2) | – | – | 13.1 nM | –
GCAAAUCAUGUAGGAUAUGCGUGGCGAAGCUAUGCAGAAGGACAUGAGGAUCACCCAUGUGCUUCCGUCUGCGUACAGACGGUA [Mat - Exclusion NG 1 - Mod of JL - D18] (Eterna round: R96, puzzle: Exclusion NG 1) | 93.5 nM | 91.3 nM | – | apparent KD of MS2 coat protein [1]: 73.4 nM
AAAAUGGUCUAGGAUAUGACAAAUCUGAGCACGUCAGAAGGAGACACAUGAGGAUCACCCAUGUGGGUGCGAAA [Erteedza] (Eterna round: R96, puzzle: Exclusion 6) | – | – | – | apparent KD of MS2 coat protein [1]: 29.3 nM
UUUAAUUUUUUUUUUUUACAAGCUUUUUGCUCGUCUUAUACAUGAGGAUCACCCAUGUGAGUGGGAGGUAAAUUAUC [JMF 77] (puzzle: Sensor v3, turn-off variant 2) | – | – | 276 nM | apparent KD of MS2 coat protein [2]: 57.7 nM; apparent KD of MS2 coat protein [4]: 70 nM
ACAAGCUUUUAGAUUCUUAACAUGAGGAUCACCCAUGUGCUCGUCUUAUUGGCCGGCCGGCCGCCGGCCGGCCGGCC (Eterna round: R97, puzzle: Sensor, turn-off variant 1) | 43.6 nM | 40.9 nM | – | –
AGUACUAUGCGAGCUGACUUGCGUAGUGCAGCAGGUGAAACAUGAGGAUCACCCAUGUCCUCAUUUGCUCGUCUUAU [Mat - Sensor v3 - Turn-off var 2 - D2] (puzzle: Sensor v3, turn-off variant 2) | – | – | 502 nM | apparent KD of MS2 coat protein [2]: 34.3 nM; apparent KD of MS2 coat protein [4]: 33.8 nM
CAUACACAUGAGGAUCACCCAUGUGAGGAUAUGAAUACGUUGUCCGUAGGCGACGUGAUCAGAAGGCGCUUGGU [Mat - Mod of JL D100] (puzzle: Exclusion 1) | – | – | 44 nM | –
GGUGCGUAUGUGAGGAUAUGCUGGUCCUUGGAUCGGCAGAAGGCACAUGAGGAUCACCCAUGUGGUGUCGUACU [salish99_Bmod_ex4_082] (puzzle: Brourd's mod of Exclusion 4) | – | – | 173 nM | –
AGAUCACAUGAGGAUCACCCAUGUCAGGAUAUCGUCACUGGAGCUGCGGCUCCAGUGACGAGAAGGGACAUAAU [E1/2-A3] (Eterna round: R97, puzzle: Exclusion 1) | 252 nM | 326 nM | – | –
CUCUUGUGAGGAUAUCAGGUGUGCUAGCGUACUGGUACAUCUGAGAAGGCACAUGAGGAUCACCCAUGUUUCAA [Mat - Exclusion 4 - Mod of JL - D41] (puzzle: Exclusion 4) | – | – | 52.5 nM | –
CGUAGCAAAGUGAGGAUAUCUAGAGCCUCGGCUCUAGAGAAGGCACAUGAGGAUCACCCAUGUGAUUAGCUACG [BmEx4/9-A2] (Eterna round: R97, puzzle: Brourd's mod of Exclusion 4) | 173 nM | 24.1 nM | – | –
ACCUCACAUGAGGAUCACCCAUGUUAGGAUAUCUCGGCGCCCUGCAGGCAGUGGCACCAGAGAAGGAACGUGCA [Xeindiisti] (puzzle: Exclusion 1) | – | – | 20.4 nM | –
CACGUGAGAGGAUAUACAUGAGGAUCACCCAUGUAUACAGCAGGGUAUGAAGACUUGGGUAGAAGGCUCGCGUG [Eternabot (L2) Solution 39] (Eterna round: R97, puzzle: Exclusion 3) | 173 nM | 270 nM | – | –
